Measurements from PMC5064454, “Wild-type p53 binds to MYC promoter G-quadruplex”.

Key:
p53CΔ30 = p53CΔ30 (Homo sapiens, UniProt P04637 1-363); assay: EMSA; 50 mM KCl; EMSA: 5 mM Tris pH 7.6, 0.5 mM EDTA, 0.01% Triton X-100, 50 mM KCl, 0.5 mM DTT, on ice 20 min (30 min for plasmids); oligo EMSA with 50 ng BSA and 2.5-20 ng pBSK/EcoRV competitor; settings: protein: recombinant; chain copies: 4; label: 5' 32P; blunt
[1] = target: T1, wtp53 (full-length wild-type p53) (Homo sapiens, UniProt P04637 1-393); assay: as above; settings: protein: recombinant, chain copies: 4, label: 5' 32P
T1 sequence (P04637 whole entry): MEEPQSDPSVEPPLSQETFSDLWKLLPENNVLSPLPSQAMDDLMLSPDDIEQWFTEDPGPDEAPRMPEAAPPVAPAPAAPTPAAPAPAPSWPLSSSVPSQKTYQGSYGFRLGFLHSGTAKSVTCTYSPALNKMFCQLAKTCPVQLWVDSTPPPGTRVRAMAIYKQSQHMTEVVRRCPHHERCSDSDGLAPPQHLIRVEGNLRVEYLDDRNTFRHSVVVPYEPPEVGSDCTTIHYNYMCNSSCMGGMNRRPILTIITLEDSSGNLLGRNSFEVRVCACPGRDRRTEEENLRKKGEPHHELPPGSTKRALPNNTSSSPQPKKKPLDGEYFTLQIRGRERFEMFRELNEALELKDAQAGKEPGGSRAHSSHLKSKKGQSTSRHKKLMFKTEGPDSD

[2] = target: p53CD (GSTp53CD, central DBD) (Homo sapiens, UniProt P04637 94-312); assay: as above; settings: protein: recombinant; tags: GST; chain copies: 4; label: 5' 32P; blunt
Sequence of p53CD (GSTp53CD, central DBD) (P04637 94-312): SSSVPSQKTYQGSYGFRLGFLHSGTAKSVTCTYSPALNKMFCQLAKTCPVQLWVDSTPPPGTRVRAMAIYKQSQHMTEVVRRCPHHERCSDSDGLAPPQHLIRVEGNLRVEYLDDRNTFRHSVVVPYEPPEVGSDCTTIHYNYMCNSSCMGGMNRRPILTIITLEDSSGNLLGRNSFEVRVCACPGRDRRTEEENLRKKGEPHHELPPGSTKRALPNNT

[3] = target: T1, wtp53 (full-length wild-type p53); assay: EMSA; 50 mM KCl; comparable to P1-22, lower than Pu52; EMSA: 5 mM Tris pH 7.6, 0.5 mM EDTA, 0.01% Triton X-100, 50 mM KCl, 0.5 mM DTT, on ice 20 min (30 min for plasmids); oligo EMSA with 50 ng BSA and 2.5-20 ng pBSK/EcoRV competitor; settings: protein: recombinant; chain copies: 4; label: 5' 32P; parallel G4, 1:2:1 loops, annealed in 50 mM KCl
p53CT (GSTp53CT) = p53CT (GSTp53CT) (Homo sapiens, UniProt P04637 320-393); assay: EMSA; 50 mM KCl; EMSA: 5 mM Tris pH 7.6, 0.5 mM EDTA, 0.01% Triton X-100, 50 mM KCl, 0.5 mM DTT, on ice 20 min (30 min for plasmids); oligo EMSA with 50 ng BSA and 2.5-20 ng pBSK/EcoRV competitor; settings: protein: recombinant; tags: GST; chain copies: 4; label: 5' 32P; parallel G4, 1:2:1 loops, annealed in 50 mM KCl
Sequence of p53CT (GSTp53CT) (P04637 320-393): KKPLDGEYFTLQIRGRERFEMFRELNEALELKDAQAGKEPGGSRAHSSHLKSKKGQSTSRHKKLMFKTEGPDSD

[4] = target: T1, wtp53 (full-length wild-type p53); assay: EMSA; 50 mM KCl; comparable to P1-50; EMSA: 5 mM Tris pH 7.6, 0.5 mM EDTA, 0.01% Triton X-100, 50 mM KCl, 0.5 mM DTT, on ice 20 min (30 min for plasmids); oligo EMSA with 50 ng BSA and 2.5-20 ng pBSK/EcoRV competitor; settings: protein: recombinant; chain copies: 4; label: 5' 32P; parallel G4, 1:2:1 loops, annealed in 50 mM KCl
[5] = target: T1, wtp53 (full-length wild-type p53); assay: EMSA; 50 mM KCl; comparable to P1-30, lower than Pu52; EMSA: 5 mM Tris pH 7.6, 0.5 mM EDTA, 0.01% Triton X-100, 50 mM KCl, 0.5 mM DTT, on ice 20 min (30 min for plasmids); oligo EMSA with 50 ng BSA and 2.5-20 ng pBSK/EcoRV competitor; settings: protein: recombinant; chain copies: 4; label: 5' 32P; parallel G4, annealed in 50 mM KCl

Sequence of p53CΔ30 (P04637 1-363, stated change not applied): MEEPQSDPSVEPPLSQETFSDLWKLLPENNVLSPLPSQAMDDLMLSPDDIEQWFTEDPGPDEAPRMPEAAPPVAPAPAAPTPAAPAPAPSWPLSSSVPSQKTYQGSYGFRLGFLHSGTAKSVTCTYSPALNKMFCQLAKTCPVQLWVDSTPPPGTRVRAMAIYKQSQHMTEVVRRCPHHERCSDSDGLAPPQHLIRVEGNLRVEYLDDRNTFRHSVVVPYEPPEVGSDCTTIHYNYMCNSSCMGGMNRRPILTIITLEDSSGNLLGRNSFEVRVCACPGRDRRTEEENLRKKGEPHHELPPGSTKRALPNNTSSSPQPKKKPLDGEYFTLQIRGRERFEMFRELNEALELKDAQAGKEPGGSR

B1: P1-40 (dsDNA)
DNA 1: GATCGATAAGAGACATGCCTAGACATGCCTCTTGATATCG
DNA 2: CGATATCAAGAGGCATGTCTAGGCATGTCTCTTATCGATC
B1: binds (p53CΔ30); binds ([1]; blunt); binds [2].

B2: P1-22 (dsDNA)
DNA 1: GAGACATGCCTAGACATGCCTC
DNA 2: GAGGCATGTCTAGGCATGTCTC
B2: binds ([1]; blunt); binds [2].

TGAGGGTGGGGAGGGTGGGGAA (structured_DNA) [Pu22]: binds [3].

B3: P1-50 (dsDNA)
DNA 1: GACGGTATCGATAAGAGACATGCCTAGACATGCCTCTTGATATCGAATTC
DNA 2: GAATTCGATATCAAGAGGCATGTCTAGGCATGTCTCTTATCGATACCGTC
B3: binds ([1]; blunt); binds [2].

B4: Pu52 (structured_DNA)
DNA: TTGGGGCGCTTATGGGGAGGGTGGGGAGGGTGGGGAAGGTGGGGAGGAGACT
B4: binds (p53CT (GSTp53CT)); binds [4].

B5: P1-30 (dsDNA)
DNA 1: GTAAGAGACATGCCTAGACATGCCTCATCG
DNA 2: CGATGAGGCATGTCTAGGCATGTCTCTTAC
B5: binds ([1]; blunt); binds [2].

TGGGGAGGGTGGGGAGGGTGGGGAAGGTGGGGA (structured_DNA) [Pu33]: binds [5].

AAAAAAAAAAAAAAAAAAAAAAAAA (ssDNA) [A25]: no binding [1].

AAAAAAAAAAAAAAAAAAAAAAAAAAAAAAAAAAAAAAAAAAAAAAAAAA (ssDNA) [A50]: no binding [1].
